Data on 3 substances can be found in US20210363204A1.

A value given as a limit tells only on which side of the number the result lay.

Some targets named below: human Nav1.6 (human) (UniProt Q9UQD0); human Nav1.7 (human) (UniProt Q15858); human Nav1.5 (human) (UniProt Q14524).
Test in all cases: cell-based or functional assay

Take recombinant Protoxin-II (peptide): in the experiment with human Nav1.6 (human), the IC50, QPatch electrophysiology assay came to 6.2e-08 M and the ratio of IC50 for Nav1.6 to IC50 for Nav1.7, QPatch is 28 fold.

In turn, wild type Protoxin-II (peptide) yielded an IC50, FLIPR Tetra membrane depolarization assay with human Nav1.7 (human) of 4 nM.

For the substance “recombinant Protoxin-II NV1D12 (peptide)”, the hNav1.5 QPatch IC50 with human Nav1.5 (human) was over 1000 nM.
